Results on 125 sequences are retold here after the supplement of paper PMC9112550, “Optimization of the antimicrobial peptide Bac7 by deep mutational scanning” (BMC Biology, 2022).

This data set deals with Escherichia coli TOP10. The data set is described as follows: shrunken log2 fold change of peptide-encoding DNA abundance (4.5 h post-induction vs induction); higher = less antimicrobial activity (less host growth inhibition). The settings on record: time post-induction: 4.5 h; library: site-saturation at positions 5, 18, 19, 20.
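Further: peptides expressed intracellularly from a pBAD plasmid library in pooled LB shake-flask culture, induced with 0.3% L-arabinose, DNA abundance read by NGS, three biological replicates, DESeq2 with apeglm shrinkage.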

Regarding RRIRDRPPRLPRPRPRPVCTPRP, the “shrunken log2 fold change” value came to 0.0514.
The same measure for RRIRTRPPRLPRPRPRPVLPPRP: 0.0511.
The same measure for RRIRRRPPRLPRPRPRPTTGPRP: -0.00353; for RRIRVRPPRLPRPRPRPGRFPRP: 0.277.
Under RRIRERPPRLPRPRPRPRARPRP stands 0.233.
As for RRIRTRPPRLPRPRPRPEAKPRP, the “shrunken log2 fold change” value was -0.0276.
Under RRIRARPPRLPRPRPRPMMLPRP stands -0.00455.
The same measure for RRIRRRPPRLPRPRPRPDAMPRP: 0.336.
The same measure for RRIRYRPPRLPRPRPRPWCHPRP: -0.191; for RRIRLRPPRLPRPRPRPPKIPRP: 0.0251; for RRIRGRPPRLPRPRPRPEAHPRP: 0.079.
In the case of RRIRYRPPRLPRPRPRPERWPRP, the “shrunken log2 fold change” value was determined as 0.44.
Under RRIRPRPPRLPRPRPRPTPCPRP stands 0.365; under RRIRIRPPRLPRPRPRPCCDPRP, -0.67; under RRIRLRPPRLPRPRPRPIDNPRP, -0.421.
Under RRIRMRPPRLPRPRPRPNTRPRP stands 0.371.
The same measure for RRIRIRPPRLPRPRPRPTAMPRP: -0.191; for RRIRCRPPRLPRPRPRPDNEPRP: -0.229.
Take RRIRWRPPRLPRPRPRPPNFPRP: the “shrunken log2 fold change” value came out at 0.015.
The same measure for RRIRPRPPRLPRPRPRPVKRPRP: -0.171; for RRIRPRPPRLPRPRPRPSTMPRP: -0.297; for RRIRTRPPRLPRPRPRPMENPRP: -0.011.
The same measure for RRIRFRPPRLPRPRPRPEHLPRP: -0.223; for RRIRFRPPRLPRPRPRPPQEPRP: 0.258.
In the case of RRIRLRPPRLPRPRPRPTWCPRP, the “shrunken log2 fold change” value came out at 0.107.
The same measure for RRIRMRPPRLPRPRPRPIARPRP: 0.184; for RRIRLRPPRLPRPRPRPGDFPRP: 0.017; for RRIRPRPPRLPRPRPRPETKPRP: 0.00908.
Under RRIRTRPPRLPRPRPRPEIDPRP stands 0.0426; under RRIRYRPPRLPRPRPRPCWHPRP, -0.0701.
Under RRIRDRPPRLPRPRPRPDKNPRP stands -0.224; under RRIRDRPPRLPRPRPRPMQSPRP, 3.94.
For RRIRSRPPRLPRPRPRPWYKPRP, the “shrunken log2 fold change” value was -0.137.
Under RRIRWRPPRLPRPRPRPVRIPRP stands -0.0854; under RRIRFRPPRLPRPRPRPKSNPRP, -0.358.
RRIRGRPPRLPRPRPRPRYLPRP: the “shrunken log2 fold change” value is 0.282.
Under RRIRPRPPRLPRPRPRPVVYPRP stands -0.538.
For the sequence RRIRKRPPRLPRPRPRPPDGPRP, the “shrunken log2 fold change” value was 0.992.
Turning to RRIRARPPRLPRPRPRPQQPPRP, the “shrunken log2 fold change” value is 0.0738.
As to RRIRYRPPRLPRPRPRPYGTPRP, the “shrunken log2 fold change” value is -0.0957.
Under RRIRKRPPRLPRPRPRPEDKPRP stands 0.0421; under RRIRSRPPRLPRPRPRPARQPRP, -0.0654; under RRIRHRPPRLPRPRPRPNRMPRP, 0.0166.
The same measure for RRIRGRPPRLPRPRPRPFAHPRP: 0.162; for RRIRYRPPRLPRPRPRPIDMPRP: -0.315.
The same measure for RRIRIRPPRLPRPRPRPKPWPRP: 0.192; for RRIRKRPPRLPRPRPRPTILPRP: -0.0105.
Regarding RRIRWRPPRLPRPRPRPHRWPRP, the “shrunken log2 fold change” value turned out to be 0.103.
On to RRIRMRPPRLPRPRPRPYARPRP, for which the “shrunken log2 fold change” value was -0.00176.
The same measure for RRIRRRPPRLPRPRPRPYPAPRP: 0.0876; for RRIRYRPPRLPRPRPRPWVFPRP: -0.0309.
Under RRIRIRPPRLPRPRPRPQWLPRP stands -0.0168; under RRIRARPPRLPRPRPRPRALPRP, 0.482; under RRIRTRPPRLPRPRPRPYAHPRP, -0.239.
Under RRIRSRPPRLPRPRPRPGRNPRP stands -0.225; under RRIRLRPPRLPRPRPRPMCHPRP, -0.0587.
Regarding RRIRLRPPRLPRPRPRPYGDPRP, the “shrunken log2 fold change” value is -0.0122.
Under RRIRGRPPRLPRPRPRPYNQPRP stands -0.104; under RRIRWRPPRLPRPRPRPDIMPRP, 0.0439.
Regarding RRIRFRPPRLPRPRPRPKFSPRP, the “shrunken log2 fold change” value was -0.0365.
Under RRIRWRPPRLPRPRPRPRYLPRP stands -0.382.
The same measure for RRIRPRPPRLPRPRPRPDATPRP: 0.625.
The same measure for RRIRKRPPRLPRPRPRPMFAPRP: 0.485; for RRIRMRPPRLPRPRPRPDASPRP: 2.43; for RRIRWRPPRLPRPRPRPAQMPRP: 0.173.
With RRIRLRPPRLPRPRPRPGLGPRP, the “shrunken log2 fold change” value amounted to 0.342.
As to RRIRFRPPRLPRPRPRPQEDPRP, the “shrunken log2 fold change” value was 0.0325.
With RRIRNRPPRLPRPRPRPGSFPRP, the “shrunken log2 fold change” value was -0.0339.
The same measure for RRIRNRPPRLPRPRPRPSWRPRP: 0.0128; for RRIRTRPPRLPRPRPRPYKHPRP: -0.518; for RRIRTRPPRLPRPRPRPYRCPRP: -0.123.
Under RRIRHRPPRLPRPRPRPYAFPRP stands 0.0613; under RRIRQRPPRLPRPRPRPHYEPRP, -0.167.
Under RRIRNRPPRLPRPRPRPWMDPRP stands -0.165; under RRIRDRPPRLPRPRPRPQCYPRP, 0.0803; under RRIRERPPRLPRPRPRPEWGPRP, 0.23.
As to RRIRIRPPRLPRPRPRPDRTPRP, the “shrunken log2 fold change” value is -0.0709.
Under RRIRARPPRLPRPRPRPHADPRP stands 0.981.
The same measure for RRIRNRPPRLPRPRPRPKCTPRP: 0.119; for RRIRHRPPRLPRPRPRPYFCPRP: -0.444; for RRIRHRPPRLPRPRPRPVRFPRP: 0.106.
Under RRIRCRPPRLPRPRPRPGYLPRP stands -0.561; under RRIRDRPPRLPRPRPRPSHVPRP, -0.401.
As for RRIRSRPPRLPRPRPRPPGGPRP, the “shrunken log2 fold change” value turned out to be 0.724.
The same measure for RRIRRRPPRLPRPRPRPIANPRP: -0.195.
The same measure for RRIRIRPPRLPRPRPRPTDKPRP: -0.406.
The same measure for RRIRSRPPRLPRPRPRPQDCPRP: -0.261; for RRIRIRPPRLPRPRPRPGHPPRP: -0.212.
Regarding RRIRFRPPRLPRPRPRPMLHPRP, the “shrunken log2 fold change” value was -0.376.
The same measure for RRIRMRPPRLPRPRPRPDFVPRP: 0.00674; for RRIRARPPRLPRPRPRPVQHPRP: 0.555; for RRIRTRPPRLPRPRPRPGPDPRP: -0.228.
As for RRIRFRPPRLPRPRPRPQNVPRP, the “shrunken log2 fold change” value is -0.16.
The same measure for RRIRSRPPRLPRPRPRPLRVPRP: 1.29; for RRIRTRPPRLPRPRPRPYMPPRP: -1.27; for RRIRNRPPRLPRPRPRPYWCPRP: -0.00264.
Turning to RRIRVRPPRLPRPRPRPPFGPRP, the “shrunken log2 fold change” value is 0.298.
The same measure for RRIRLRPPRLPRPRPRPAGAPRP: 0.632.
The same measure for RRIRCRPPRLPRPRPRPMFFPRP: -0.399.
On to RRIRPRPPRLPRPRPRPSNVPRP, for which the “shrunken log2 fold change” value was -0.463.
As to RRIRVRPPRLPRPRPRPLGCPRP, the “shrunken log2 fold change” value was -0.0466.
As to RRIRQRPPRLPRPRPRPQLIPRP, the “shrunken log2 fold change” value was -0.237.
The same measure for RRIRCRPPRLPRPRPRPVNWPRP: 0.393; for RRIRWRPPRLPRPRPRPLLPPRP: 0.676.
Under RRIRTRPPRLPRPRPRPRSKPRP stands -0.101.
For RRIRCRPPRLPRPRPRPALYPRP, the “shrunken log2 fold change” value is -0.0755.
The same measure for RRIRSRPPRLPRPRPRPSIQPRP: -0.497; for RRIRMRPPRLPRPRPRPTLDPRP: 1.35; for RRIRFRPPRLPRPRPRPCLAPRP: -0.245.
The same measure for RRIRARPPRLPRPRPRPDKKPRP: 0.0318; for RRIRSRPPRLPRPRPRPKHWPRP: 0.311; for RRIRLRPPRLPRPRPRPTILPRP: 0.0347.
Under RRIRIRPPRLPRPRPRPKYGPRP stands -0.284.
Consider RRIRHRPPRLPRPRPRPRMSPRP, for which the “shrunken log2 fold change” value is -0.0693.
Under RRIRIRPPRLPRPRPRPLIIPRP stands -0.652.
With RRIRIRPPRLPRPRPRPNRGPRP, the “shrunken log2 fold change” value is -0.203.
Under RRIRLRPPRLPRPRPRPHCGPRP stands -0.22; under RRIRERPPRLPRPRPRPIKTPRP, -0.139; under RRIRTRPPRLPRPRPRPQVEPRP, -0.00619.
The same measure for RRIRVRPPRLPRPRPRPDRCPRP: 0.0141.
For RRIRERPPRLPRPRPRPNCTPRP, the “shrunken log2 fold change” value is -0.102.
Under RRIRYRPPRLPRPRPRPLFPPRP stands -0.643; under RRIRMRPPRLPRPRPRPQKVPRP, 0.238; under RRIRIRPPRLPRPRPRPPLPPRP, 0.796.
On to RRIRTRPPRLPRPRPRPFFKPRP, for which the “shrunken log2 fold change” value was -0.303.
